Experimental data taken from patent publication US12616740B2, “Methods of using a GIP/GLP1 co-agonist for therapy” (ELI LILLY AND COMPANY, priority 2018, dated 2026).

Test: NCT03311724: nausea, vomiting and diarrhea, new events per interval
Assay type: in vivo, human
Conditions: N = 28
Source text: This is a 12-week treatment with a 1 week screening (Visit 1) followed by a 1 week lead-in (Visit 2), then 12 weeks of treatment (Visits 3-10, including telephone visits), then followed by 4-week safety follow-up. It is a Phase 2 study designed to examine the efficacy and tolerability of subcutaneously once-weekly tirzepatide compared with placebo in patients with type 2 diabetes who have inadequate glycemic control with diet and exercise alone or with a stable dose of metformin. The study was designed per below and conducted to refine the escalation scheme.

Measured: Nausea Vomiting and Diarrhea: m, number of patients who experienced new event during interval

tirzepatide [LY]
m = 3;: LY15 mg-Group 1 (tirzepatide 2.5 mg × 2, 5 mg × 2, 10 mg × 4, 15 mg × 4 once weekly), T/Wk 1 | LY15 mg-Group 1 (tirzepatide 2.5 mg × 2, 5 mg × 2, 10 mg × 4, 15 mg × 4 once weekly), T/Wk 10 | LY15 mg-Group 2 (tirzepatide 2.5 mg × 4, 7.5 mg × 4, 15 mg × 4 once weekly), T/Wk 3 | LY15 mg-Group 2 (tirzepatide 2.5 mg × 4, 7.5 mg × 4, 15 mg × 4 once weekly), T/Wk 6 | LY15 mg-Group 2 (tirzepatide 2.5 mg × 4, 7.5 mg × 4, 15 mg × 4 once weekly), T/Wk 11
m = 1;: LY15 mg-Group 1 (tirzepatide 2.5 mg × 2, 5 mg × 2, 10 mg × 4, 15 mg × 4 once weekly), T/Wk 3
m = 6;: LY15 mg-Group 1 (tirzepatide 2.5 mg × 2, 5 mg × 2, 10 mg × 4, 15 mg × 4 once weekly), T/Wk 5 | LY15 mg-Group 2 (tirzepatide 2.5 mg × 4, 7.5 mg × 4, 15 mg × 4 once weekly), T/Wk 4
m = 5;: LY15 mg-Group 1 (tirzepatide 2.5 mg × 2, 5 mg × 2, 10 mg × 4, 15 mg × 4 once weekly), T/Wk 4 | LY15 mg-Group 2 (tirzepatide 2.5 mg × 4, 7.5 mg × 4, 15 mg × 4 once weekly), T/Wk 8
m = 2;: LY15 mg-Group 1 (tirzepatide 2.5 mg × 2, 5 mg × 2, 10 mg × 4, 15 mg × 4 once weekly), T/Wk 2 | LY15 mg-Group 1 (tirzepatide 2.5 mg × 2, 5 mg × 2, 10 mg × 4, 15 mg × 4 once weekly), T/Wk 6 | LY15 mg-Group 1 (tirzepatide 2.5 mg × 2, 5 mg × 2, 10 mg × 4, 15 mg × 4 once weekly), T/Wk 11 | LY15 mg-Group 2 (tirzepatide 2.5 mg × 4, 7.5 mg × 4, 15 mg × 4 once weekly), T/Wk 2 | LY15 mg-Group 2 (tirzepatide 2.5 mg × 4, 7.5 mg × 4, 15 mg × 4 once weekly), T/Wk 5 | LY15 mg-Group 2 (tirzepatide 2.5 mg × 4, 7.5 mg × 4, 15 mg × 4 once weekly), T/Wk 7 | LY15 mg-Group 2 (tirzepatide 2.5 mg × 4, 7.5 mg × 4, 15 mg × 4 once weekly), T/Wk 9
m = 4;: LY15 mg-Group 1 (tirzepatide 2.5 mg × 2, 5 mg × 2, 10 mg × 4, 15 mg × 4 once weekly), T/Wk 8 | LY15 mg-Group 2 (tirzepatide 2.5 mg × 4, 7.5 mg × 4, 15 mg × 4 once weekly), T/Wk 0 | LY15 mg-Group 2 (tirzepatide 2.5 mg × 4, 7.5 mg × 4, 15 mg × 4 once weekly), T/Wk 1
m = 13;: LY15 mg-Group 2 (tirzepatide 2.5 mg × 4, 7.5 mg × 4, 15 mg × 4 once weekly), Overall
m = 0;: LY15 mg-Group 1 (tirzepatide 2.5 mg × 2, 5 mg × 2, 10 mg × 4, 15 mg × 4 once weekly), T/Wk 7 | LY15 mg-Group 1 (tirzepatide 2.5 mg × 2, 5 mg × 2, 10 mg × 4, 15 mg × 4 once weekly), T/Wk 9 | LY15 mg-Group 1 (tirzepatide 2.5 mg × 2, 5 mg × 2, 10 mg × 4, 15 mg × 4 once weekly), T/Wk 12 | LY15 mg-Group 2 (tirzepatide 2.5 mg × 4, 7.5 mg × 4, 15 mg × 4 once weekly), Follow-up | LY15 mg-Group 2 (tirzepatide 2.5 mg × 4, 7.5 mg × 4, 15 mg × 4 once weekly), T/Wk 10 | LY15 mg-Group 2 (tirzepatide 2.5 mg × 4, 7.5 mg × 4, 15 mg × 4 once weekly), T/Wk 12
